Assay results: publication PMC12074421, “Development and Characterization of pFluor50, a Fluorogenic-Based Kinetic Assay System for High-Throughput Inhibition Screening and Characterization of Time-Dependent Inhibition and Inhibition Type for Six Human CYPs” (Molecules, 2025)

Columns and labels:
Format in all cases: in vitro ADME, human
Conditions in all cases: pH 7.4
[1] = substrate: CCOc1ccc2nc3ccc(=O)cc-3oc2c1; assay: pFluor50 Michaelis–Menten kinetics, CYP2D6 with Eres
Experimental: (§1) In general, the protocol for determination of the Michaelis–Menten kinetic parameters (KM and Vmax) involved addition of the appropriate master mix to phosphate buffer followed by addition of the appropriate amount of enzyme to the mix. The master mix was determined for each specific CPY450 based on empirical methods involving each reagent to obtain a linear range of enzyme activity. A total of 30 µL of this enzyme mix was then added to each well of the 384-well plate. Next, initial background readings were taken for 5 min, after which the appropriate amount of substrate was dispensed into each well using the onboard reagent dispenser of the plate reader. All plates contained one blank well without enzyme (only master mix) for each substrate concentration. […] Table 1 provides the formulation of the master mix for each CYP, the kinetic read time with substrate, the read time interval, the concentration range of the substrate used for the Michaelis–Menten kinetics, the Ex and Em wavelengths, and the concentration of substrate for inhibition/activation screening. Table S1 details the specific parameters used for the plate reader for each CYP–substrate pair.
For determining the Michaelis–Menten kinetic parameters (KM and Vmax) for each CYP–substrate pair, kinetic studies were performed in which a range of different concentrations of the substrate were used. Table 1 details the formulations for the master mix, CYPexpress^TM concentrations, and concentration ranges of each specific substrate. For each CYP–substrate pair, plate reader parameters were set up as described in Table S1. The protocol used for Michaelis–Menten kinetics was similar for all the CYPs. Briefly, the working solution was prepared for each substrate and then primed into one of the dispensers on the plate reader. The other dispenser was primed with the buffer solution. 1.5 mL of phosphate buffer solution (pH 7.4) was used to prepare the master mix with the appropriate concentration of each reagent as specified in Table 1 (NADPH, NADP+, G6P, G6PDH, and/or MgCl2). The amount of CYPexpress reagent in units/(mg/mL) was determined for each enzyme as new lots may have slightly different activities, and the activity of the reagent may change over time. The appropriate mass of each CYPexpress^TM reagent needed to obtain the required units was measured using an analytical balance and was transferred to the master mix solution. This solution was mixed, and 30 µL of the solution was added to each well using a multichannel pipette. […] The plate was then transferred to the plate reader and readings were taken at the time intervals, for the appropriate length of time, and at the appropriate wavelengths as specified in Table 1.
Calibration curves were constructed using the determined plate reader settings (Figure S3) and concentrations of the products formed to allow for the calculation of product formation rates based on the observed fluorescence. For these calculations, we presumed that the total increase in observed fluorescence over time was due only to product formation. Calibration curves were generated with 6 different concentrations of the products (fluorescein and resorufin), which spanned the relative fluorescence units (RFU) observed during the kinetic experiments. […] Therefore, the exact rate of formation could not be determined, and the Vmax for CYP3A4 cleavage of dibenzyl fluorescein has been reported as the rate of change in relative fluorescence units (RFUs) per minute.

[2] = substrate: CCOc1ccc2nc3ccc(=O)cc-3oc2c1; assay: pFluor50 Michaelis–Menten kinetics, CYP2C9 with Eres
Experimental: as §1
For determining the Michaelis–Menten kinetic parameters (KM and Vmax) for each CYP–substrate pair, kinetic studies were performed in which a range of different concentrations of the substrate were used. Table 1 details the formulations for the master mix, CYPexpress^TM concentrations, and concentration ranges of each specific substrate. For each CYP–substrate pair, plate reader parameters were set up as described in Table S1. […] Briefly, the working solution was prepared for each substrate and then primed into one of the dispensers on the plate reader. […] The amount of CYPexpress reagent in units/(mg/mL) was determined for each enzyme as new lots may have slightly different activities, and the activity of the reagent may change over time. The appropriate mass of each CYPexpress^TM reagent needed to obtain the required units was measured using an analytical balance and was transferred to the master mix solution. […]

[3] = substrate: CCOc1ccc2nc3ccc(=O)cc-3oc2c1; assay: pFluor50 Michaelis–Menten kinetics, CYP1A2 with Eres
Experimental: as §1
For determining the Michaelis–Menten kinetic parameters (KM and Vmax) for each CYP–substrate pair, kinetic studies were performed in which a range of different concentrations of the substrate were used. Table 1 details the formulations for the master mix, CYPexpress^TM concentrations, and concentration ranges of each specific substrate. For each CYP–substrate pair, plate reader parameters were set up as described in Table S1. The protocol used for Michaelis–Menten kinetics was similar for all the CYPs. Briefly, the working solution was prepared for each substrate and then primed into one of the dispensers on the plate reader. The other dispenser was primed with the buffer solution. 1.5 mL of phosphate buffer solution (pH 7.4) was used to prepare the master mix with the appropriate concentration of each reagent as specified in Table 1 (NADPH, NADP+, G6P, G6PDH, and/or MgCl2). The amount of CYPexpress reagent in units/(mg/mL) was determined for each enzyme as new lots may have slightly different activities, and the activity of the reagent may change over time. The appropriate mass of each CYPexpress^TM reagent needed to obtain the required units was measured using an analytical balance and was transferred to the master mix solution. This solution was mixed, and 30 µL of the solution was added to each well using a multichannel pipette. In each case, a blank control well was also included, as described in Figure S1. The plate was then transferred to the plate reader and readings were taken at the time intervals, for the appropriate length of time, and at the appropriate wavelengths as specified in Table 1.
Calibration curves were constructed using the determined plate reader settings (Figure S3) and concentrations of the products formed to allow for the calculation of product formation rates based on the observed fluorescence. For these calculations, we presumed that the total increase in observed fluorescence over time was due only to product formation. Calibration curves were generated with 6 different concentrations of the products (fluorescein and resorufin), which spanned the relative fluorescence units (RFU) observed during the kinetic experiments. This allowed for the calculation of product concentrations from the observed RFU, enabling the calculation of the product formation rates. Unfortunately, fluorescein benzyl ester (the product formed from the metabolism of dibenzyl fluorescein) is not commercially available. Therefore, the exact rate of formation could not be determined, and the Vmax for CYP3A4 cleavage of dibenzyl fluorescein has been reported as the rate of change in relative fluorescence units (RFUs) per minute.

[4] = other: CYP2D6 1 mg/mL, three biological replicates
[5] = other: CYP1A2 1 mg/mL, three biological replicates
[6] = other: CYP1A2, biological repeat 1
[7] = other: CYP1A2, biological repeat 2
[8] = other: CYP1A2, biological repeat 3

B1: CYP2D6 (Homo sapiens) (protein)
chain: MGLEALVPLAVIVAIFLLLVDLMHRRQRWAARYPPGPLPLPGLGNLLHVDFQNTPYCFDQLRRRFGDVFSLQLAWTPVVVLNGLAAVREALVTHGEDTADRPPVPITQILGFGPRSQGVFLARYGPAWREQRRFSVSTLRNLGLGKKSLEQWVTEEAACLCAAFANHSGRPFRPNGLLDKAVSNVIASLTCGRRFEYDDPRFLRLLDLAQEGLKEESGFLREVLNAVPVLLHIPALAGKVLRFQKAFLTQLDELLTEHRMTWDPAQPPRDLTEAFLAEMEKAKGNPESSFNDENLRIVVADLFSAGMVTTSTTLAWGLLLMILHPDVQRRVQQEIDDVIGQVRRPEMGDQAHMPYTTAVIHEVQRFGDIVPLGVTHMTSRDIEVQGFRIPKGTTLITNLSSVLKDEAVWEKPFRFHPEHFLDAQGHFVKPEAFLPFSAGRRACLGEPLARMELFLFFTSLLQHFSFSVPTGQPRPSHHGVFAFLVSPSPYELCAVPR
notes: purchased Sigma Aldrich (CYPexpress, Oxford Biomedical Research, Inc.) MTOXCE2D6
- Km [1, 4]: 1.63 ± 0.7 µM
- Vmax [1, 4]: 0.00093 µmol/min
- Km ([1]; other: CYP2D6, biological repeat 1): 2.43 µM
- Km ([1]; other: CYP2D6, biological repeat 2): 0.89 µM
- Km ([1]; other: CYP2D6, biological repeat 3): 1.57 µM

B2: CYP2C9 (Homo sapiens) (protein)
chain: MDSLVVLVLCLSCLLLLSLWRQSSGRGKLPPGPTPLPVIGNILQIGIKDISKSLTNLSKVYGPVFTLYFGLKPIVVLHGYEAVKEALIDLGEEFSGRGIFPLAERANRGFGIVFSNGKKWKEIRRFSLMTLRNFGMGKRSIEDRVQEEARCLVEELRKTKASPCDPTFILGCAPCNVICSIIFHKRFDYKDQQFLNLMEKLNENIKILSSPWIQICNNFSPIIDYFPGTHNKLLKNVAFMKSYILEKVKEHQESMDMNNPQDFIDCFLMKMEKEKHNQPSEFTIESLENTAVDLFGAGTETTSTTLRYALLLLLKHPEVTAKVQEEIERVIGRNRSPCMQDRSHMPYTDAVVHEVQRYIDLLPTSLPHAVTCDIKFRNYLIPKGTTILISLTSVLHDNKEFPNPEMFDPHHFLDEGGNFKKSKYFMPFSAGKRICVGEALAGMELFLFLTSILQNFNLKSLVDPKNLDTTPVVNGFASVPPFYQLCFIPV
notes: purchased Sigma Aldrich (CYPexpress, Oxford Biomedical Research, Inc.) MTOXCE2C9
- Km ([2]; other: CYP2C9, biological repeat 1): 0.46 µM
- Km ([2]; other: CYP2C9, biological repeat 2): 0.52 µM
- Km ([2]; other: CYP2C9, biological repeat 3): 0.39 µM

B3: CYP1A2 (Homo sapiens) (protein)
chain: ALSQSVPFSATELLLASAIFCLVFWVLKGLRPRVPKGLKSPPEPWGWPLLGHVLTLGKNPHLALSRMSQRYGDVLQIRIGSTPVLVLSRLDTIRQALVRQGDDFKGRPDLYTSTLITDGQSLTFSTDSGPVWAARRRLAQNALNTFSIASDPASSSSCYLEEHVSKEAKALISRLQELMAGPGHFDPYNQVVVSVANVIGAMCFGQHFPESSDEMLSLVKNTHEFVETASSGNPLDFFPILRYLPNPALQRFKAFNQRFLWFLQKTVQEHYQDFDKNSVRDITGALFKHSKKGPRASGNLIPQEKIVNLVNDIFGAGFDTVTTAISWSLMYLVTKPEIQRKIQKELDTVIGRERRPRLSDRPQLPYLEAFILETFRHSSFLPFTIPHSTTRDTTLNGFYIPKKCCVFVNQWQVNHDPELWEDPSEFRPERFLTADGTAINKPLSEKMMLFGMGKRRCIGEVLAKWEIFLFLAILLQQLEFSVPPGVKVDLTPIYGLTMKHARCEHVQARLRFSIN
notes: purchased Sigma Aldrich (CYPexpress, Oxford Biomedical Research, Inc.) MTOXCE1A2
- Km [3, 5]: 0.35 ± 0.1 µM
- Vmax [3, 5]: 1.61 nmol/min
- Km [3, 6]: 0.33 µM
- Vmax [3, 6]: 1.64 nmol/min
- Km [3, 7]: 0.225 µM
- Vmax [3, 7]: 1.38 nmol/min
- Km [3, 8]: 0.47 µM
- Vmax [3, 8]: 1.82 nmol/min
